# Source: the RNAGym collection of RNA variant scans (doi:10.1073/pnas.2313332121)
# B1: TPR t1 (parent)
# chain: GACCAAUCUGCCCUCAGAGCUCGAGAACAUCUUCGGAUGCAGAGGAGGCAGGCUUCGGUGGCGCGAUAGCGCCAACGUCCUCAACCUCCAAUGCAUCCCACCACAUGAUGAUGCCUGAAGAGCCUUGGUUUUUUG
# Variants of: B1
# Experiment: polymerase ribozyme fitness, log enrichment relative to wild type (log ratio); higher = more active; in vitro selection for triplet polymerase activity
# Outline: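 After PCR construction and transcription, each subunit's mutant library from a heterodimeric triplet polymerase ribozyme was annealed with a biotinylated primer, the partner subunit and triplets. Incubation was frozen, at −7 °C, and extended constructs were gel-excised, bound to streptavidin beads and amplified by RT-PCR, in one selection round done in triplicate. Fitness is the logarithm of a genotype's enrichment divided by that of the wild type, from inverse-variance-weighted replicate averages of Illumina-sequenced inputs and outputs. The base of the logarithm is 2, and genotypes needed ≥10 input reads and ≥1 read per output.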
row,Variant,polymerase ribozyme fitness (log ratio)
1,C40U G113A,-1.41
2,C40U A95G,-1.37
3,U38G G52U G135C,-3.58
4,C40G C49U G69A U78A,-4.96
5,C40A G69C U130C,-2.11
6,C40U C56G,-1.16
7,G39U G63A A100U G120U,-2.94
8,C40G C56U G69U,-3.63
9,U38G G47U G120A U130C,-1.92
10,G39U G63A G93U,-3.17
11,C40G C82A A83C U87A A121U,-0.502
12,C40G U109A C114G U132A,-4.05
13,G39A U81A C88U,-0.679
14,G39C C72U G93U A121U,0.127
15,G39U U106C U129C,-1.88
16,U38G A46U G77U C124U,-1.67
17,G39C G135U,-0.712
18,U38G C102U,-3.84
19,G39U G47U,-2.97
20,C40G G120U,-0.437
21,C40G G120A,0.215

row,Variant,polymerase ribozyme fitness (log ratio)
1,C40A A43C,-3.2
2,C40G U81C,-1.19
3,C40U G71U U92A,-5.4
4,G39C G69A G127U,-3.35
5,G39U C49A,-0.99
6,C40G C72U G93A,-0.859
7,C40U G48C C82A,-1.94
8,C40A A43U C82U,-3.09
9,G39C U116C,-2.01
10,G39A C72U C99U G120A U126C,-3.09
11,U38A C114A A121U,-1.59
12,C40U G48U C82A C88A,-3.31
13,U38A U96A,-1.13
14,U38A G127A,-2.5
15,C40A G45U G71C U92A,-6.28
16,G39C G93A,-2.3
17,U38G G135U,-2.04
18,C40U G122A,-1.22
19,G39U C97A,-5.98
20,C40A C73A U81C C104U,-0.977
21,C40U G48A C53A G61A U132A,-0.596

row,Variant,polymerase ribozyme fitness (log ratio)
1,C40A G44U G45A,-3.66
2,C40G C115A G120C G122U,-1.41
3,U38G G52A G63C,-2.23
4,C40G A46U C53U C62A,-3.89
5,U38G C82G A95G,-2.72
6,C40A G48A C70U,-2.07
7,C40G G44U C85U,-5.09
8,C40U G47U C53U,-3.37
9,G39U C64U A91C C123A,-1.57
10,G39U C88U C94U U106G A121C,-0.0673
11,C40A G69C,-2.42
12,C40A C73U U78A,-0.967
13,U38G C53A U81C C101U C124G,1
14,C40U C64U,-0.45
15,C40A A43G C56G G135U,-4.41
16,G39A C73A G117A A119G,1.02
17,U38G G44A,-2.72
18,C40G G61A C104A U106C,-1.7
19,C40G G71A,-1.91
20,C40U G57C A90C A103U U112G,-6.33
21,C40U G107C U109A,-6.59

row,Variant,polymerase ribozyme fitness (log ratio)
1,C40U G45U G63U U78C,-4.36
2,C40U G51U,-3.7
3,C40A C82G,-1.95
4,U38G U78A,-0.0381
5,G39C A66U A75G C88G C123U,-3.46
6,C40U C88A C114G,-2.99
7,G39U G57A C80A,-2.91
8,C40A G60U A91G G135C,-4.18
9,C40U C56U A74U U78C C89G,-2.81
10,G39U A90G C102A G117U A121C,-5.4
11,U38G C56U C72A U131C,-2.05
12,C40A C73U G128U,-3.11
13,U38G G52C U55G A74U,-2.31
14,U38G C101A,-1.88
15,C40U G117A,-1.87
16,G39A G42A A46G G58A,-2.47
17,C40U G93A,-1.09
18,C40G C56U C70A G77A C88U A103U A119G,-7.04
19,G39U A43G,-1.75
20,C40G U55G,-0.761
